± gives the uncertainty stated by the source.
Experiment: amyloid nucleation score (Sup35N fusion, yeast selection) (log enrichment); library NNK3; higher = more nucleation; inactive = no reads after selection
Outline: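 Using DiMSum, nucleation scores were taken as the log enrichment of output over input reads, centred on the mode score of non-aggregating sequences. The input and output reads came from Illumina sequencing of plasmid inserts, with sequences under 100 input reads excluded. The yeast were psi-negative, expressed Sup35N fused to peptides of 20 random codons, were induced with 100 μM copper sulfate for 24 hours, and were grown 7 days at 30°C on medium lacking adenine and uracil.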
In the case of WAAWFYASGVRASEGRDYGG, the amyloid nucleation score is reported as “inactive”.
ISDTYSWCRYLVIGNYAQLG showed an amyloid nucleation score of 0.463 ± 0.23.
With DFISERHYHRPAGPA the amyloid nucleation score was “inactive”.
SLRLSCVDVQVNN showed an amyloid nucleation score of -0.253 ± 0.9.
In the case of ILYRCDCAFFYPLGLLFSRC, the amyloid nucleation score is reported as “inactive”.
With YTRLRNVDTRAFMDSPDILW the amyloid nucleation score was “inactive”.
For LWDRVNCFYFRDEGDELEER, the amyloid nucleation score was “inactive”.
FRVAAMAISGTISCQYFQGL gave an amyloid nucleation score of 0.739 ± 0.17.
For NSNSYLGTNFILNQYVLCID, the amyloid nucleation score was “inactive”.
With LFSICINICLY the amyloid nucleation score was 1.79 ± 0.092.
In the case of MWSHFFSQYSGWRFYTKSRF, the amyloid nucleation score is reported as “inactive”.
In the case of FNATCVVGHQVSVCNPWDAH, the amyloid nucleation score is reported as “inactive”.
In the case of AFFPHELRDMFRSNLYCCYA, the amyloid nucleation score is reported as “inactive”.
For TCSYNSGKYNFE, the amyloid nucleation score was “inactive”.
For TYQST, the amyloid nucleation score was “inactive”.
With LDMPCILLYLRSNWGRFG the amyloid nucleation score was “inactive”.
In the case of VTDEIFELSGKVTIDSAEL, the amyloid nucleation score is reported as “inactive”.
In the case of DAGYDVVLGSMAMVSVGTCL, the amyloid nucleation score is reported as “inactive”.
For DLGLNYFESSRDPDGSLLYL, the amyloid nucleation score was “inactive”.
For IREFSNI, the amyloid nucleation score was “inactive”.
For RLDVFYEMLIMYKEQYGMVR, the amyloid nucleation score was “inactive”.
Substance VNYRSNIFNHYCSFSRN has an amyloid nucleation score of 0.934 ± 0.11.
With CDSYKVYRVLNKQGWFCRGS the amyloid nucleation score was “inactive”.
In the case of HISYNHIGEYVKKSDFECSN, the amyloid nucleation score is reported as “inactive”.
For VLILCIKNTCLNQCASSCHR, the amyloid nucleation score was 2.02 ± 0.068.
Substance LFMMCGHMEYAIVKNRVDKS has an amyloid nucleation score of 0.016 ± 0.46.
In the case of SYWPVRSELQSVLLNSCGVR, the amyloid nucleation score is reported as “inactive”.
With DYLVFFRPLFNSIDSHWIRS the amyloid nucleation score was “inactive”.
In the case of VFAARAKRY, the amyloid nucleation score is reported as “inactive”.
With FFGFPLV the amyloid nucleation score was “inactive”.
For YQFDFTF, the amyloid nucleation score was “inactive”.
With NIIFRTW the amyloid nucleation score was “inactive”.
Substance SGNHLSWYGTIE has an amyloid nucleation score of 1.26 ± 0.086.
Substance KRCRFVVIFKSGIVTLWKLF has an amyloid nucleation score of 0.568 ± 0.42.
For SFIKRVRDSMSRM, the amyloid nucleation score was “inactive”.
For SKIGILWCLMSEECYLFQFR, the amyloid nucleation score was “inactive”.
With KLFSYRRRPNINCLG the amyloid nucleation score was “inactive”.
With SPTRQLIKFKYSGHYIVHLR the amyloid nucleation score was “inactive”.
In the case of TFNSLVCQFIKPLHHLFATL, the amyloid nucleation score is reported as “inactive”.
In the case of VGERLANQIGTYCDDQWWTW, the amyloid nucleation score is reported as “inactive”.
Substance GCKMVGRICSDIICSVGVME has an amyloid nucleation score of 0.988 ± 0.16.
For CLYVSLS, the amyloid nucleation score was “inactive”.
In the case of GVSMERLKFDIVL, the amyloid nucleation score is reported as “inactive”.
For NITPRQMWVRWRQCMMGTGL, the amyloid nucleation score was “inactive”.
In the case of PFHSVYVDDDAWNGVCLPAV, the amyloid nucleation score is reported as “inactive”.
For RCIGALRTRPSTEGRTSLRI, the amyloid nucleation score was “inactive”.
For FIRGVSYDFIDRSIILFLEV, the amyloid nucleation score was “inactive”.
For ILCQIDAKDPKPLMTRGLRL, the amyloid nucleation score was “inactive”.
For WVRAA, the amyloid nucleation score was “inactive”.
For QRLVINDMMPLFFWHSNMGD, the amyloid nucleation score was “inactive”.
In the case of MFRVMSSVKLLS, the amyloid nucleation score is reported as -0.754 ± 0.96.
With ELFDWTFLFPDSSINMWK the amyloid nucleation score was “inactive”.
YNMCLRDRVLFVIIDVRIFW showed an amyloid nucleation score of 0.035 ± 0.35.
In the case of IYSVYWDGMEPSIRTGWI, the amyloid nucleation score is reported as “inactive”.
With SCLFRILMQLSTTMNSSVFK the amyloid nucleation score was “inactive”.
For IPSNTKSFSH, the amyloid nucleation score was “inactive”.
For HSAVE, the amyloid nucleation score was “inactive”.
For GDTHHCAADGV, the amyloid nucleation score was 0.504 ± 0.24.
With SRVTSIWRGYNFINIKRGDL the amyloid nucleation score was -0.42 ± 1.3.
With FFSCFCLLMRY the amyloid nucleation score was “inactive”.
For KNLHNTRRLCSVLLVCWMYK, the amyloid nucleation score was “inactive”.
With AIRFVNPMFSFWVSNWNYAG the amyloid nucleation score was “inactive”.
For WNLVPSHMFFV, the amyloid nucleation score was “inactive”.
In the case of MRVKGLIRWWETGCEKKSTA, the amyloid nucleation score is reported as “inactive”.
Substance SHQFYMSARTNW has an amyloid nucleation score of 0.701 ± 0.24.
For KLLSRYSTACMLRINLIRRY, the amyloid nucleation score was “inactive”.
For ESRLIISKDGRRSMSKHGGP, the amyloid nucleation score was “inactive”.
In the case of RTYDVCQTRVCKRAKWEGDT, the amyloid nucleation score is reported as “inactive”.
In the case of TLDVQGTCH, the amyloid nucleation score is reported as “inactive”.
For MNFSEH, the amyloid nucleation score was “inactive”.
For VYSGSFGDSKLLMFWCSITV, the amyloid nucleation score was “inactive”.
In the case of LNRSSFHLELITSTCKVFLV, the amyloid nucleation score is reported as “inactive”.
In the case of MTSITVDYDNLDYRIAMITW, the amyloid nucleation score is reported as “inactive”.
For PVPLAMYFYVALIYFDWW, the amyloid nucleation score was “inactive”.
In the case of SNMNV, the amyloid nucleation score is reported as “inactive”.
With VIDRNWRRLHSWVGLVGRAR the amyloid nucleation score was “inactive”.
In the case of VCTTMCDTRWVTISYF, the amyloid nucleation score is reported as “inactive”.
With KKHIVY the amyloid nucleation score was “inactive”.
For VRRLFVARCRYCQLMYFRGE, the amyloid nucleation score was “inactive”.

Source: the supplement of paper PMC12042874
